The target of one data set is T1, SmTRα (Schistosoma mansoni, UniProt Q2TUU7 1-1115).
T1 sequence: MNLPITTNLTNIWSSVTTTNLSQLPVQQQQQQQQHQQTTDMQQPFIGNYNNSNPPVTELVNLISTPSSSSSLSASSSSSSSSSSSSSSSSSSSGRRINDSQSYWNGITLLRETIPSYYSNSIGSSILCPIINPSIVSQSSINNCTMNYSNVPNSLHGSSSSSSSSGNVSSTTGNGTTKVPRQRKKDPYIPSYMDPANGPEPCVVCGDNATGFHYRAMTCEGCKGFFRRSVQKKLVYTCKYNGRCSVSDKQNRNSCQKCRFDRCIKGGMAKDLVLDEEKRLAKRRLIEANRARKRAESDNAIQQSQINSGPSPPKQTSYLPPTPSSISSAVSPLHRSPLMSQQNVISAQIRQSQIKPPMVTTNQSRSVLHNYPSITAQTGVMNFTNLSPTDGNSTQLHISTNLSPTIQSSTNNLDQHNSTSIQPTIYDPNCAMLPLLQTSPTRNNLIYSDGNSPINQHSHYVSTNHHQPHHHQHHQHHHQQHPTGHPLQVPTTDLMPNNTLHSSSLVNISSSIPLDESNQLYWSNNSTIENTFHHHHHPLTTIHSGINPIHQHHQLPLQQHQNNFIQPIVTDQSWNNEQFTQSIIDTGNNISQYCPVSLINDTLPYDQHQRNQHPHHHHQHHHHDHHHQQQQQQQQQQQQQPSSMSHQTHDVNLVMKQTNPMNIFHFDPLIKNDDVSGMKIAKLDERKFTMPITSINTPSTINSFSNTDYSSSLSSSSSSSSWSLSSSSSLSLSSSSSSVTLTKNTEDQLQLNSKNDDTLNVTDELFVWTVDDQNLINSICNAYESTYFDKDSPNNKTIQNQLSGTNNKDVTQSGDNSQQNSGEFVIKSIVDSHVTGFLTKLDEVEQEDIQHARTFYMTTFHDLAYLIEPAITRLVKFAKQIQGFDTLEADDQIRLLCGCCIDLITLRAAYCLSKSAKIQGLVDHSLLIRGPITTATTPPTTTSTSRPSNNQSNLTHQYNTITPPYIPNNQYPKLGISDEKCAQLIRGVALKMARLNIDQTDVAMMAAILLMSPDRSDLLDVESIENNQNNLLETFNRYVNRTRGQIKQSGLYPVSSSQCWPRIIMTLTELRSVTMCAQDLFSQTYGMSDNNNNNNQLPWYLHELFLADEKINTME
Put plainly: EMSA; monomer or homodimer; EMSA on ice 40 min, 15 µl with 3 µl 5x buffer (5x: 20% glycerol, 5 mM MgCl2, 2.5 mM EDTA, 2.5 mM DTT, 250 mM NaCl, 50 mM Tris-HCl pH 7.5, 0.25 mg/ml poly(dI-dC)); 6% native gel, 1x TBE, 4°C. The conditions noted are these: protein: ivt; tags: none stated (pCITE-4a); label: 32P; blunt. Background: A gel shift assay detects complexes by their altered migration in electrophoresis.

A further data set addresses SmTRα(Gln182-Ala288) (Schistosoma mansoni, UniProt Q2TUU7 182-288). Put plainly: EMSA; monomer or homodimer; cold self competes; EMSA on ice 40 min, 15 µl with 3 µl 5x buffer (5x: 20% glycerol, 5 mM MgCl2, 2.5 mM EDTA, 2.5 mM DTT, 250 mM NaCl, 50 mM Tris-HCl pH 7.5, 0.25 mg/ml poly(dI-dC)); 6% native gel, 1x TBE, 4°C. The settings on record: protein: ivt; tags: none stated (pCITE-4a); label: 32P; blunt.

B1: DR2 (dsDNA)
DNA 1: CCGTAAGGTCACAAGGTCACTCG
DNA 2: CGAGTGACCTTGTGACCTTACGG
Take B1: the binding result with SmTRα and with SmTRα(Gln182-Ala288) was “binds” each time.

B2: DR5 (dsDNA)
DNA 1: CCGTAAGGTCACCAGGAGGTCACTCG
DNA 2: CGAGTGACCTCCTGGTGACCTTACGG
Regarding B2, the binding result in the data set with SmTRα and in the data set with SmTRα(Gln182-Ala288) was “binds” throughout.

B3: DR0 (dsDNA)
DNA 1: CCGTAAGGTCAAGGTCACTCG
DNA 2: CGAGTGACCTTGACCTTACGG
Turning to B3, the binding result with SmTRα and with SmTRα(Gln182-Ala288) was “binds” in each case.

B4: DR4 (dsDNA)
DNA 1: CCGTAAGGTCACAGGAGGTCACTCG
DNA 2: CGAGTGACCTCCTGTGACCTTACGG
For B4, the binding result in the data set with SmTRα and in the data set with SmTRα(Gln182-Ala288) was “binds” throughout.

B5: half-site (dsDNA)
DNA 1: GTACCGTAAGGTCACTCGCGT
DNA 2: ACGCGAGTGACCTTACGGTAC
For the molecule B5, the binding result with SmTRα and in the data set with SmTRα(Gln182-Ala288) was “binds” in each case.

B6: DR1 (dsDNA)
DNA 1: CCGTAAGGTCACAGGTCACTCG
DNA 2: CGAGTGACCTGTGACCTTACGG
As to B6, the binding result with SmTRα and with SmTRα(Gln182-Ala288) was “binds” each time.

B7: Pal0 (dsDNA)
DNA 1: CGCAAGGTCATGACCTCG
DNA 2: CGAGGTCATGACCTTGCG
As to B7, the binding result with SmTRα and with SmTRα(Gln182-Ala288) was “binds” in each case.

B8: DR3 (dsDNA)
DNA 1: CCGTAAGGTCACAGAGGTCACTCG
DNA 2: CGAGTGACCTCTGTGACCTTACGG
With B8, the binding result with SmTRα and with SmTRα(Gln182-Ala288) was “binds” in each case.
